The data set can be described thus: soluble on expression in E. coli; label from the status in PepcDB or PDB records.
As to “MRWFLLIVVSALFLSGCMPEIYTHASTPSTIIADNETHIAGRYAFVDVQVLDEYGLPVSGEDVSFYVDGAFLGEATTDTSGVARIGFFSPSEKTYTFTAVAGGVSRSFDVSFTKPKWLFIVWMAADNNLYYYSEDDLSEMRNASGSVSVVVVYDGIGIGDGMLVLDESGNFQAVVGTMGIDFNSGSYTNLEAWLEMILNQFDADHYALVIWDHGSAWIGDSYYISTKVIGYDDFQGTAIAVSNLRKALENALSGDKLDILGFDACLMGSLEVIYELRNTADYIVASSFNEPAEGWDYSFLGEIAPDSTPLDVARMIVDSYREYYSSDTYQNELSLAVYDTSQVEVFVSDLNLFISDLKADLSKVDAVYSDVVKSYIDDYNQTVLVDLGDFIDRWVSSSRITTAPDLSSVVVYSYGEIAGKTLSFPISIFMPESMSCYQDYQTDYQTLSFPYDTQWDEFLEYWLNQKGGLEHHHHHH”, the “soluble on expression in E. coli” value is recorded as “not soluble”.

For the sequence “MRYLPIFVFLGSFGYTETTLTKELIKDAAEKCCTRNRQECCIEIMKFGTPIRCGYDRDPKLPGYVYKCLQNVLFAKEPKKKINLDDSVCCSVFGNDQNDSGRRCENRCKNLMTSPSIDAATRLDSIKSCSLLDNVLYKCFEKCRSLRKDGIKIEVLQFEEYCNATFIQKRTFRGV”, the “soluble on expression in E. coli” value is “not soluble”.

For the sequence “MSAALVAQQVATLREQGFAVVRNFASPPVRQALRELALQHLAQTVDPVEYEADLKYPGAPSSRLAAGGQTVRRLLDAYGRDQRFRDWATQAAIGAFLRAYFQDTPVLSTVHHNCIMTKHPAFGSLTGWHQDIRYWSFSDDDLVSCWLALGDERADNGGLYFVPGSHTASFMPEQYDARKFFRDDLPQNQEWIGRAVCPELQAGDVVFFHCRTLHAARQNATDTVKLSLVHTYHPASCHPLPGTRSAGSPGVPLPLEHHHHHH”, the “soluble on expression in E. coli” value was “not soluble”.

As to “MSAEAVIENRDYTLMIDKSSSMATADDPNGPTRWEIAQASTIALAKKCEEIDSDGITVYLFSGRFRRYDNVTAEKVAYIYANNEPMGRTDLAGALKDGLDNFFQRRQAGQTKPNGETFLIITDGEPTDRKAVIRLILEASQKIDRDEELAISLIQVGRDKKATAFFQALDDQLQAAGAKFDIVDTVTMEDMQGMSLSDVLLKAITDLEHHHHHH”, the “soluble on expression in E. coli” value is recorded as “not soluble”.

In the case of “MSAIKEVKSELRQFMKTLLGKISKEETQRQTEAVFEKIIESKWFQESKRLSVYVSTSGEIQTDSIIQKALEMGKEVFIPQFTKGSTAMDMVRVPDQTAFDNLPSTLWGIRQPEPKWKWQSYHETGPLDLILAPGVAFSPYGLRCGHGKGYYDRFFSTHHKHFPENSPKKIGLALREQIIGTIPISETDVELDEVIYEGETIIFDTI”, the “soluble on expression in E. coli” value is listed as “soluble”.

For the sequence “MSAKNVLKMANRNSANKRDILGDLLSLSSNKTVNLNEMAHGQGKRKMASIDGQKENPKRIKMSQHMTAKEVKIPLLRTPDEEARKIEKLRREARIKRSKEVHYDAAEQQQIMMNYEWTVQMEEQEKLRKKVEKKH”, the “soluble on expression in E. coli” value was “not soluble”.

Regarding “MSANDRRDRRVRVAVVFGGRSNEHAISCVSAGSILRNLDSRRFDVIAVGITPAGSWVLTDANPDALTITNRELPQVKSGSGTELALPADPRRGGQLVSLPPGAGEVLESVDVVFPVLHGPYGEDGTIQGLLELAGVPYVGAGVLASAVGMDKEFTKKLLAADGLPVGAYAVLRPPRSTLHRQECERLGLPVFVKPARGGSSIGVSRVSSWDQLPAAVARARRHDPKVIVEAAISGRELECGVLEMPDGTLEASTLGEIRVAGVRGREDSFYDFATKYLDDAAELDVPAKVDDQVAEAIRQLAIRAFAAIDCRGLARVDFFLTDDGPVINEINTMPGFTTISMYPRMWAASGVDYPTLLATMIETTLARGVGLH”, the “soluble on expression in E. coli” value is recorded as “soluble”.

Consider “MSANFTDKNGRQSKGVLLLRTLAMPSDTNANGDIFGGWIMSQMDMGGAILAKEIAHGRVVTVAVESMNFIKPISVGDVVCCYGQCLKVGRSSIKIKVEVWVKKVASEPIGERYCVTDAVFTFVAVDNNGRSRTIPRENNQELEKALALISEQPL”, for which the “soluble on expression in E. coli” value is “soluble”.

Take “MSAPKRPKFSVGDIVVNTLYGTVGTITDIQQIDGTFLYEINHGHSLFAEQALILLSEFAGDLWIAEEIEIELPFFLGEIVRVRDYGGHLFKIVGVRTEIYRYYGEGWEETIYELKRLTDGWEIEVHLEDIIPLADGEETSVTLVQDIVIAAPVKASLLLPPADSGEKGPSVDELLDMYNDYKALYEWFGDEQYQRMMETVVKRLRTISDHQDRN”: the “soluble on expression in E. coli” value is on record as “not soluble”.

“MSASAETVAPEGYRKLLDVQIFKDSPVVGWSGSGMGELETIGDTLPVDTTVTYNGLPTLRLNVQTTVQSGWWISLLTLRGWNTHDLSQYVENGYLEFDIKGKEGGEDFVIGFRDKVYERVYGLEIDVTTVISNYVTVTTDWQHVKIPLRDLMKINNGFDPSSVTCLVFSKRYADPFTVWFSDIKITSEDNEKSAPAIKLEHHHHHH”: the “soluble on expression in E. coli” value is given as “soluble”.

As to “MSATAKAPYSKTFIRSCILYEVLQKKPVFEAYQKICRSLKERISYQEFDYWFYKFYNGNHDLEDEISDEQSLVNPLLDMSNNLSEKEWCRSFVQFFHGLPPRPNKKPAFSLQSMPRKVWQELCSKLEPCDRLVAKKVTRRFRQTIDEQDNLFNTLGICFEDDKTRIFFNEKTFHYTSVGNECRITLDLFTKEDAIKIKDILTRSDNFKYANFESGNFDPIEIANVFIPNYQSNHWPIINYMRHNKKFLLKITPMTFQIKKID”, the “soluble on expression in E. coli” value is recorded as “not soluble”.

Take “MSAVNRAAVEAVLRQYTDPYLNQDPVSAGCVRDIEVQGDRVTVRMELGYAAGLFKSGWAQMLQLAIEGLDGVSSAKVEISSVIAAHKAQAQIPGLANVKNVVAVASGKGGVGKSTTAANLALALAREGAKVGILDADIYGPSQGIMFGIAEGTRPKIKDQKWFVPIESHGVEVMSMAFLTDDNTPMVWRGPMVSGALLQLVTQTDWGNLDYLVIDMPPGTGDIQLTLAQKVPVAGAVIVTTPQDLALLDARKGVEMFRKVNIPVLGVVENMAVHICSNCGHAEHLFGEGGGEKLASQYDVELLASLPLSMLIREQADGGKPTVIAEPESQIAMVYQELARHVGARIVLQEAAAPAMPNITISDDLEHHHHHH”: the “soluble on expression in E. coli” value is recorded as “not soluble”.

As for “MSCDGGKPAPAKLGDEQLAELREIFRSFDQNKDGSLTELELGSLLRSLGLKPSQDQLDTLIQKADRNNNGLVEFSEFVALVEPDLVKCPYTDDQLKAIFRMFDRDGNGYITAAELAHSMAKLGHALTAEELTGMIKEADRDGDGCIDFQEFVQAITSAAFDNAWG”, the “soluble on expression in E. coli” value is listed as “soluble”.

“MSDATLHNTTQDPDDFAVQIADQVESFLVAVTEVAKGDEPDSAVPFLLLEVSQLLLAGGRLGAHEDIVPDERYEPDMGPEPDVDELRERLATMLDPVDVYSEVFDPYEPRKAPVPARISDDLADVIADLRHGMAHYRAGRTTEALWWWQFSYFSNWGSTASATLRALQSLVAHVRLNQPLEELDGLDTDQDLSEDALAEEAGRVMASEIAGPLGLRTVRLEHHHHHH”: the “soluble on expression in E. coli” value is listed as “soluble”.

Regarding “MSDDEAAVPGNKPIRLPKKAAKVKNKAPAQLQITAEQLLREAKERELELIPPAPKTKITDPDELKEYQRKKRKEFEDGIRKNRMQLANWIKYGKWEESIGEIQRARSVFERALDVDHRSISIWLQYAEMEMRCKQINHARNVFDRAITIMPRAMQFWLKYSYMEEVIENIPGARQIFERWIEWEPPEQAWQTYINFELRYKEIDRARSVYQRFLHVHGINVQNWIKYAKFEERNGYIGNARAAYEKAMEYFGEEDINETVLVAFALFEERQKEHERARGIFKYGLDNLPSNRTEEIFKHYTQHEKKFGERVGIEDVIISKRKTQYEKMVEENGYNYDAWFDYLRLLENEETDREEVEDVYERAIANIPPHSEKRYWRRYIYLWINYALYEELVAKDFDRARQVYKACIDIIPHKTFTFAKVWIMFAHFEIRQLDLNAARKIMGVAIGKCPKDKLFRAYIDLELQLREFDRCRKLYEKFLESSPESSQTWIKFAELETLLGDTDRSRAVFTIAVQQPALDMPELLWKAYIDFEIACEEHEKARDLYETLLQRTNHIKVWISMAEFEQTIGNFEGARKAFERANQSLENAEKEERLMLLEAWKECETKSGDQEALKRVETMMPRRVKKRRQIQTEDGVDAGWEEYFDYIFPQDQAAKGSFKLLEAAARWKREREEAAARAAQELDAPIPEGDDDEEKEEAGKDAEEKVREGDSDTDLSESSSSSDSESSSSSSSDSSDSSDDDEDK”, the “soluble on expression in E. coli” value is on record as “not soluble”.

“MSDICVIIAAYNAEATIAQAVTSALAEAEVAEVVVVDDASSDATAEAALAASDGSGRLIVERQAQNGGPSAARNRAVALSQAPRIAILDADDFFLPGRFARLDPDLDLAADNIVFVTPEHAARLDPTNLPAAPREVEMLDAERFALGNLAQGVHRGELGFLKPVMSRAFLTRHGLRYDERMWLGEDFDLYMRMLLLGARFGLTRAVGYAAVQRGASLSGRHRTADLAALEACCRAHLEMPASPATQEAMRRHLRQVQAKLLLRQFLDRKAEAGLGAALGFALAPPARFLPIAKGVARDKIAALRPPAPPRAERFLLPVLEHHHHHH”: the “soluble on expression in E. coli” value is “not soluble”.

“MSDIERRHTIMAKGSVRKKGKKWYYRFYVEDASGNLVQKEYAGTESKSETEKLLRQAMDDYESKKFIAKSENITIGELLDIWAEEELKTGMLSNGTVQNYLGAITNIKKHPISERKLKNVTSEHLQAFFDLLSFGGTYPDGSERKGYSKDYIRSFSAVLQQSFRFAVSPKQYITFNPMQYIKLKYQTDEVDLFSDDDMDGDIQPIPREDYERLIEFLQNYNPPAILPIQIAYYAGLRIGEACGLAWQDVNLEEQCLTIRRSIRYDGSRHKNIIGPTKRKKVRIVDFGDTLAEILRNARKEQLKNRMQYGELYHKNYYREVKDKNRVYYEFYHLDGTENVPEDYKEISFVCLRPDGSLELPSTLGIVCRKIAQKLDGFEGFHFHQLRHTYTSNLLANGAAPKDVQELLGHSDVSTTMNVYAHSTRKAKRESARLLDKVAGND”: the “soluble on expression in E. coli” value is “not soluble”.

For the sequence “MSDKLTEKTVKLDTPIMRGKTEITEIVLRKPQSGALRGTRLQAIMDMDVGAMMTVIPRISTPTLTAQEMAELDPADLTALSVEVVTFLLKKSVLAGLPTA”, the “soluble on expression in E. coli” value was “not soluble”.

In the case of “MSDKPHRIVIVGGGAGGLELATALGNKYGKSDAVRVTLVDRSRTHIWKPLLHAIAAGSLRRSQHELNYLAQAHWHGFHYRLGEMNGLDRARKVIKLAPVIDDEGREINPESELAYDTLVIAIGSVTNDFGTPGARDHAVPLETPEQASRFNKRMVNACLRAQHQHAPIEPGQLHVAIIGAGATGTELAAELHHTAREIIAYGLDKIDPEHDLKIVLIEAAPRILPALPPRISDATLKLLLDLGVEVRTGARVAEVLDHAVRLADGEVIPSELVVWAAGVRAPDFLEGIDGLDTNRINQLVVRPTLQTTRDDNVFGMGDCAACAIPGYENGVPPRAQAAHQEAEFMLEQIEKRLKGEPLGEFRYRDLGSLVSLGKYSAVGNLMGSLVGKSFLIEGYFARFMYRSLYKMHEAALYGRGRTLLSVLSGSTRPTPTVKLHLEHHHHHH”, the “soluble on expression in E. coli” value is given as “not soluble”.

For “MSDLKNLILNSSILLDTSSTVQNDLNPEQLINVHEDSDGGRDLLTPESFILLMAEILSTNNADTICEYEHQNSADNKVLQNLQFKEVEEDEQIEGLNEQKKSLDNPLWHDVDLPVINEISGNQCEGQFESTLEKNVALTWINSENFQPPIVKPENQTDETYKIWDSEITSIESGKLKLDFPKADYDGNNINPYQKEAINQPGNDSSKNHQLIKGNDSFPILEDIKTNAEPGTKAIKSEVEATKVGTEIPGSSFQMNQKAGSDIQPPVVSNSHIPKNFSIPIHVNHSQWSEQLSEHIVWLGHQDVKSALIKIHPEELGPLEINVKVVKDNASVNISTHSVYVKEIVDQAIPRLREMMAQQGINLSEVHIGTDTSSRQGSQKNHHAEIDLIQSAEDKNKITSLTRHLPKGLVDYFA”, the “soluble on expression in E. coli” value is “not soluble”.

(Values after the DeepSol protein solubility set.)
